Measurements from US20020034770A1, “COMPOUNDS THAT INTERFERE WITH DNA REPLICATION IN RAPIDLY PRO[…] FOR USE IN CANCER THERAPY AND METHODS FOR SCREENING FOR SUCH COMPOUNDS” (priority 1996, published 2002).

Target: T1, Cdc6-associated kinase (Clb/Cdk1 kinases) (Saccharomyces cerevisiae, UniProt P00546)
T1 construct: 1 mg of protein extract from K4527, grown in YEPR at 25° C. or induced for 4 hours in YEPRG, was immunoprecipitated with 12CA5 Ab; endogenous in cells; host or cells: S. cerevisiae strain K4527 (W303 background, wild type, 5 copies of GAL-HA3CDC6); The kinase is endogenous; Only the Cdc6 bait is expressed from an introduced construct
Assay: Histone H1 kinase assay of Cdc6-associated kinase immunoprecipitated with 12CA5 Ab
Type: biochemical
Details: HA3Cdc6 immunoprecipitate from K4527 extract (GAL-HA3CDC6, induced 4 hours in YEPRG); FIG. 5D
Experimental: Protein extracts were prepared as in Schwob et al., 1994. For Clb2 kinase assays, […] of total proteins were immunoprecipitated using anti-Clb2 Ab (1:30, Amon et al., 1992). To assay Cdc6-associated kinase, HA3Cdc6 or Cdc6HA3 was immunoprecipitated with 12CA5 Ab (1:10) from the amounts of protein extracts indicated in figure legends. Histone Hi kinase activity was measured as previously described (Schwob et al., 1994).
D) Cdc6-associated kinase is inhibited by p40^SIC1. 1 mg of protein extract from K4527, grown in YEPR at 25° C. or induced for 4 hours in YEPRG, was immunoprecipitated with 12CA5 Ab and before the last washing step split into four aliquots. Kinase activity was measured in the absence or in the presence of the indicated amounts of purified p40^SIC1. R:Raffinose. G: Galactose. The addition of p40^SIC1 causes the appearance of two additional signals probably due to phosphorylation of p40^SIC1 by an aspecific kinase. E) Cdc28p co-immunoprecipitates with Cdc6p. Cdc6p was immunoprecipitated with 12CA5 Ab from protein extracts (5 mg) of K4527 cells grown at 25° C. in YEPR and induced for 4 hours in YEPRG. Protein A-Sepharose beads were boiled in SDS buffer and analysed by Western blot using Cdc28 Ab (1:500) ([…]. R: Raffinose. G: Galactose).

T1 sequence (P00546 whole entry): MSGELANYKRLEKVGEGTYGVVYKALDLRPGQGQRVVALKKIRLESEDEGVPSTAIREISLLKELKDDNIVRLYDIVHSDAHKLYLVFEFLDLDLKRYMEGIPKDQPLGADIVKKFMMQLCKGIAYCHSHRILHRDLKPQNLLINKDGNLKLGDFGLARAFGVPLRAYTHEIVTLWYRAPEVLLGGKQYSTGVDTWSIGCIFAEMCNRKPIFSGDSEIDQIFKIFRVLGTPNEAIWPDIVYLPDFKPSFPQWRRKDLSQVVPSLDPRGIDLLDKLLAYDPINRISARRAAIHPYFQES

B1: p40^SIC1: purified Clb-specific Cdk inhibitor protein of budding yeast, encoded by SIC1 (protein, UniProt P38634 1-284, looked up)
Protein SIC1: MTPSTPPRSRGTRYLAQPSGNTSSSALMQGQKTPQKPSQNLVPVTPSTTKSFKNAPLLAPPNSNMGMTSPFNGLTSPQRSPFPKSSVKRTLFQFESHDNGTVREEQEPLGRVNRILFPTQQNVDIDAAEEEEEGEVLLPPSRPTSARQLHLSLERDEFDQTHRKKIIKDVPGTPSDKVITFELAKNWNNNSPKNDARSQESEDEEDIIINPVRVGKNPFASDELVTQEIRNERKRAMLRENPDIEDVITYVNKKGEVVEKRRLTDEEKRRFKPKALFQSRDQEH
Cdc6-associated histone H1 kinase activity on addition of purified p40^SIC1: inhibited
